# The supplement of paper PMC7877785
# ± gives the uncertainty stated by the source.
# Assay: self-splicing fitness, log relative to wild type (ln ratio); higher = more splicing; Tetrahymena group I intron in knt gene, E. coli kanamycin selection, DiMSum; sequences stand for … in CUCUCU…GGAGGGAAAAGUUAUCAGGCAUGCACCUGGUAGCUAGUCUUUAAACCAAUAGAUUGCAUCGGUUUAAAAGGCAAGACCGUCAAAUUGCGGGAAAGGGGUCAACAGCCGUUCAGUACCAAGUCUCAGGGGAAACUUUGAGAUGGCCUUGCAAAGGGUAUGGUAAUAAGCUGACGGACAUGGUCCUAACCACGCAGCCAAGUCCUAAGUCAACAGAUCUUCUGUUGAUAUGGAUGCAGUUCACAGACUAAAUGUCGGUCGGGGAAGAUGUAUUCUUCUCAUAAGAUAUAGUCGGACCUCUCCUUAAUGGGAGCUAGCGGAUGAAGUGAUGCAACACUGGAGCCGCUGGGAACUAAUUUGUAUGCGAAAGUAUAUUGAUUAGUUUUGGAGUACUCGUGGUCG
# In short: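 The eight P1ex-region nucleotides of an intron in the knt kanamycin-resistance gene on pET-22b(+) were all randomised and the library put into E. coli BL21(DE3). Six replicate transformations were grown overnight at 37°C or 30°C on LB agar with or without 25 μg/mL kanamycin, together with 100 μg/mL carbenicillin, 50 μM IPTG and 0.2% rhamnose. Colonies were pooled and amplicon-sequenced on an Illumina HiSeq 2500. Fitness from DiMSum is the error-weighted combination of wild-type-normalised replicate fold changes, kanamycin over none.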
Sequence,self-splicing fitness (ln) (30 °C),self-splicing fitness (ln) (37 °C)
AAAUAGCAAUAUUACGGUAA,-2.14 ± 0.21,-1.5 ± 0.16
AAAUAGCAAUAUUACGGUAC,-3.61 ± 0.25,-2.6 ± 0.3
AAAUAGCAAUAUUACGGUUC,-1.21 ± 0.11,-0.851 ± 0.16
AAAUAGCAAUAUUACGUAUC,-3.12 ± 0.28,-1.51 ± 0.19
AAAUAGCAAUAUUACGUAUG,-2.64 ± 0.12,-2.08 ± 0.13
AAAUAGCAAUAUUACGUCUA,-0.412 ± 0.077,0.205 ± 0.084
AAAUAGCAAUAUUACGUCUU,0.225 ± 0.074,0.263 ± 0.092
AAAUAGCAAUAUUACGUGAA,-3.08 ± 0.12,-0.845 ± 0.097
AAAUAGCAAUAUUACGUGGA,-3.16 ± 0.13,-2.11 ± 0.099
AAAUAGCAAUAUUACGUUGC,-2.63 ± 0.23,-2.98 ± 0.3
AACAAGCAAUAUUACGAAGC,-3.15 ± 0.27,-2.83 ± 0.38
AACAAGCAAUAUUACGACCC,-0.136 ± 0.22,0.116 ± 0.24
AACAAGCAAUAUUACGACGG,-2.3 ± 0.14,-1.93 ± 0.12
AACAAGCAAUAUUACGAGGC,-3.07 ± 0.15,-3.27 ± 0.28
AACAAGCAAUAUUACGAUAA,-1.62 ± 0.084,-1.15 ± 0.11
AACAAGCAAUAUUACGAUGC,-2.67 ± 0.14,-0.922 ± 0.11
AACAAGCAAUAUUACGCACA,0.157 ± 0.071,-0.163 ± 0.094
AACAAGCAAUAUUACGCACC,-0.717 ± 0.097,-0.435 ± 0.14
AACAAGCAAUAUUACGCCCU,0.18 ± 0.062,0.0436 ± 0.08
AACAAGCAAUAUUACGCCUA,-0.12 ± 0.059,0.231 ± 0.065
AACAAGCAAUAUUACGCGAU,-3.61 ± 0.17,-1.57 ± 0.12
AACAAGCAAUAUUACGCGGG,-3.55 ± 0.14,-2.46 ± 0.15
AACAAGCAAUAUUACGGAGG,-3.19 ± 0.19,-0.738 ± 0.15
AACAAGCAAUAUUACGGCUG,-0.419 ± 0.059,-0.225 ± 0.086
AACAAGCAAUAUUACGGGAG,-2.51 ± 0.093,-1.96 ± 0.1

Sequence,self-splicing fitness (ln) (30 °C),self-splicing fitness (ln) (37 °C)
AACAAGCAAUAUUACGGGCA,-0.586 ± 0.058,-0.0288 ± 0.066
AACAAGCAAUAUUACGGGCC,-2.99 ± 0.25,0.104 ± 0.19
AACAAGCAAUAUUACGGUUU,-2.73 ± 0.1,-1.08 ± 0.086
AACAAGCAAUAUUACGUCGA,-1.27 ± 0.087,-0.532 ± 0.092
AACAAGCAAUAUUACGUGGU,-3.38 ± 0.12,-1.57 ± 0.1
AACAAGCAAUAUUACGUUGA,-3.31 ± 0.13,-1.95 ± 0.1
AACAAGCAAUAUUACGUUGU,-2.17 ± 0.074,-2.39 ± 0.13
AACAAGCAAUAUUACGUUUA,-2.45 ± 0.09,-1.07 ± 0.074
AACAAGCAAUAUUACGUUUU,-3.22 ± 0.08,-1.03 ± 0.067
AACCAGCAAUAUUACGACAC,-1.07 ± 0.08,-0.426 ± 0.1
AACCAGCAAUAUUACGACCC,-0.941 ± 0.1,0.421 ± 0.13
AACCAGCAAUAUUACGACCU,-0.404 ± 0.093,-0.0868 ± 0.1
AACCAGCAAUAUUACGAGGU,-3.14 ± 0.16,-2.53 ± 0.16
AACCAGCAAUAUUACGAUAC,-2.38 ± 0.084,-1.39 ± 0.11
AACCAGCAAUAUUACGAUCC,-0.433 ± 0.078,-0.358 ± 0.12
AACCAGCAAUAUUACGCAAA,-0.829 ± 0.1,-0.805 ± 0.11
AACCAGCAAUAUUACGCACG,-0.891 ± 0.055,-0.215 ± 0.078
AACCAGCAAUAUUACGCGGU,-4.38 ± 0.19,-2.43 ± 0.15
AACCAGCAAUAUUACGGAAG,-1.22 ± 0.066,0.117 ± 0.089
AACCAGCAAUAUUACGGAGU,-1.66 ± 0.048,-0.881 ± 0.064
AACCAGCAAUAUUACGGCAU,0.127 ± 0.053,0.376 ± 0.067
AACCAGCAAUAUUACGGCCU,0.12 ± 0.075,-0.853 ± 0.082
AACCAGCAAUAUUACGGUAU,-2 ± 0.071,-0.457 ± 0.08
AACCAGCAAUAUUACGUCGA,-0.87 ± 0.071,-0.757 ± 0.07
AACCAGCAAUAUUACGUGCA,-0.671 ± 0.055,-0.0717 ± 0.072

Sequence,self-splicing fitness (ln) (30 °C),self-splicing fitness (ln) (37 °C)
AACCAGCAAUAUUACGUUAU,-2.18 ± 0.055,-0.941 ± 0.058
AACGAGCAAUAUUACGAAGU,-2.75 ± 0.17,-2.86 ± 0.31
AACGAGCAAUAUUACGAGAU,-4.25 ± 0.36,-3.02 ± 0.3
AACGAGCAAUAUUACGAUGA,-3.91 ± 0.46,-2.08 ± 0.22
AACGAGCAAUAUUACGAUUG,-4.09 ± 0.23,-1.56 ± 0.23
AACGAGCAAUAUUACGCCUC,-2.71 ± 0.28,-1.53 ± 0.17
AACGAGCAAUAUUACGCCUU,-3.47 ± 0.16,-1.8 ± 0.11
AACGAGCAAUAUUACGCGAU,-3.04 ± 0.26,-1.99 ± 0.3
AACGAGCAAUAUUACGCGCG,-1.81 ± 0.28,-1.75 ± 0.28
AACGAGCAAUAUUACGGAAA,-3.63 ± 0.23,-2.65 ± 0.24
AACGAGCAAUAUUACGGACA,-2.38 ± 0.12,-1.57 ± 0.11
AACGAGCAAUAUUACGGAUA,-2.98 ± 0.22,-1.85 ± 0.29
AACGAGCAAUAUUACGGGUA,-2.96 ± 0.17,-0.912 ± 0.11
AACGAGCAAUAUUACGGUCG,-2.14 ± 0.13,-1.02 ± 0.14
AACGAGCAAUAUUACGUACU,-1.04 ± 0.067,-1.04 ± 0.079
AACGAGCAAUAUUACGUCCA,-2.92 ± 0.3,-1.92 ± 0.21
AACGAGCAAUAUUACGUGGA,-2.62 ± 0.33,-2.15 ± 0.19
AACGAGCAAUAUUACGUGGU,-4.57 ± 0.27,-2.94 ± 0.17
AACGAGCAAUAUUACGUUUA,-3.12 ± 0.2,-2.64 ± 0.21
AACUAGCAAUAUUACGAAAA,-1.53 ± 0.16,-1.75 ± 0.17
AACUAGCAAUAUUACGAAAG,-2.79 ± 0.15,-1.61 ± 0.18
AACUAGCAAUAUUACGAACG,-0.824 ± 0.083,-0.339 ± 0.12
AACUAGCAAUAUUACGAGCA,-1.68 ± 0.12,-0.209 ± 0.11
AACUAGCAAUAUUACGAUGC,-1.25 ± 0.12,-2.06 ± 0.25
